# Biological target: RPA heterotrimer (RPA1, RPA2, RPA3) (UniProt P27694;P15927;P35244 1-616;1-270;1-121)
# Assay: EMSA; low PAR (lanes 3-4, from 8 ng) mixed with DNA before RPA; free DNA decreased; PBS, 20 ul, 20-23 C (room temperature), 30 min; 1% agarose gel in 0.5x TBE at 4 C; pH not stated
# Settings: protein: recombinant; copies: 1;1;1; label: 5' Cy5.5; single strand
# Chain of RPA heterotrimer (RPA1, RPA2, RPA3) (P27694 whole entry, chain 1 of 3): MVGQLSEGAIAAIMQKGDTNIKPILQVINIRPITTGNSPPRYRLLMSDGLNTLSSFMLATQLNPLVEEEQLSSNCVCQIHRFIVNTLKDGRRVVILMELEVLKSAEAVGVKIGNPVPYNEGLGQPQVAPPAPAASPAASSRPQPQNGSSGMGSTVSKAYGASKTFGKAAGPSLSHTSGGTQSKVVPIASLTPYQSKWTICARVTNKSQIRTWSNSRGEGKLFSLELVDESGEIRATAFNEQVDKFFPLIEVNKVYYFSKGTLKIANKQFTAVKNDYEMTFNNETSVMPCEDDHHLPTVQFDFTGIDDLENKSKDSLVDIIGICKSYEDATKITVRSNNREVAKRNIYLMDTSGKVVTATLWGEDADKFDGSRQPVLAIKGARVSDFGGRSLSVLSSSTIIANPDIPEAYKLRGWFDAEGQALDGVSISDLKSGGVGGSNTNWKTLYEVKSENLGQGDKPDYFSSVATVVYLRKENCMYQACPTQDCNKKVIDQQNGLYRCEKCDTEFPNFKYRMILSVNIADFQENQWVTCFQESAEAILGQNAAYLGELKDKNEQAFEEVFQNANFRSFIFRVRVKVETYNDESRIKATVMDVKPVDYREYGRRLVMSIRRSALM
# Chain of RPA heterotrimer (RPA1, RPA2, RPA3) (P15927 whole entry, chain 2 of 3): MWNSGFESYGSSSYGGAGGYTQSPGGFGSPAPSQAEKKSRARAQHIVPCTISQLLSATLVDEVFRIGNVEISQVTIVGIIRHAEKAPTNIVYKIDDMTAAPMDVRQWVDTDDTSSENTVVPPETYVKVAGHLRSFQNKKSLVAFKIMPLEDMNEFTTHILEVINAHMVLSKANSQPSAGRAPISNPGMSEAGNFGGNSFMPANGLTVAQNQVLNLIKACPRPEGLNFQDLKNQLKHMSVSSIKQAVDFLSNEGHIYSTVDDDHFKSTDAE
# Chain of RPA heterotrimer (RPA1, RPA2, RPA3) (P35244 whole entry, chain 3 of 3): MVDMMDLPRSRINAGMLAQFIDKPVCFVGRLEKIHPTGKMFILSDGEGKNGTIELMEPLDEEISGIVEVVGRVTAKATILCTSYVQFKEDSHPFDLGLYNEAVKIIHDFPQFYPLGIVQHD
binder,measurement,value
TTTTTTTTTTTTTTTTTTTTTTTTTTTTTTTTTTTTTTTTTTTTTTTTTT (ssDNA) [Cy5.5-oligodT 50-mer],binding result,binds

# Reference: PMC4081103, “PARG is dispensable for recovery from transient replicative stress but required to prevent detrimental accumulation of poly(ADP-ribose) upon prolonged replicative stress”
